Assay results as given in paper PMC9371925 (Nucleic Acids Research, 2022).
Where “and” joins values, the source holds several entries; their conditions need not be identical. Equal values may be shown once. Read-outs that look alike come from different tables or passages of the source.

How the values were obtained:
[1] = target: Streptomyces coelicolor zinc uptake regulator (ScZur) (Streptomyces coelicolor M145); test: cryo-EM structure
[2] = target: T1, ScZur (Streptomyces coelicolor M145, UniProt Q9L2H5 1-139); test: EMSA
T1 sequence: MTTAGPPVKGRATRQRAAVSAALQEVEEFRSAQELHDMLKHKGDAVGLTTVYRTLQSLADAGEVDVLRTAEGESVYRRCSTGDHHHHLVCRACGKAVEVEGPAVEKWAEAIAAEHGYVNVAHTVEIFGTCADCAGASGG

[3] = target: T1, ScZur; test: EMSA; remark: listed apart in the source
[4] = target: the molecule itself; test: cryo-EM structure

## Streptomyces coelicolor zinc uptake regulator (ScZur) (natural protein)
[1]
  stoichiometry N: 6 and 4

B1: zitB Zur-box 33 bp (-68 to -36) (dsDNA)
DNA 1: CAAGGCACATGACAACGGTGTTCAGTGCCGCGT
DNA 2: ACGCGGCACTGAACACCGTTGTCATGTGCCTTG
[2]
  Kd: 34 ± 0.7 nM

B2: M2 33 bp (dsDNA)
DNA 1: CAAGGCACATCACAACTGTGTTGAGTGCCGCGT
DNA 2: ACGCGGCACTCAACACAGTTGTGATGTGCCTTG
[3]
  Kd: 223 ± 30.5 nM

B3: Streptomyces coelicolor RNA polymerase α subunit (natural protein, Streptomyces coelicolor M145)
chain: MLIAQRPSLTEEVVDEFRSRFVIEPLEPGFGYTLGNSLRRTLLSSIPGAAVTSIRIDGVLHEFTTVPGVKEDVTDLILNIKQLVVSSEHDEPVVMYLRKQGPGLVTAADIAPPAGVEVHNPDLVLATLNGKGKLEMELTVERGRGYVSAVQNKQVGQEIGRIPVDSIYSPVLKVTYKVEATRVEQRTDFDKLIVDVETKQAMRPRDAMASAGKTLVELFGLARELNIDAEGIDMGPSPTDAALAADLALPIEELELTVRSYNCLKREGIHSVGELVARSEADLLDIRNFGAKSIDEVKAKLAGMGLALKDSPPGFDPTAAADAFGADDDADAGFVETEQY
[4]
  binding result: binds
